Bridges are numbered along the chain shown (N, C = ends). [ ]: non-standard residue; d: D form. 2Nal = N[C@@H](Cc1ccc2ccccc2c1)C(=O)O; Cit = NC(=O)NCCC[C@H](N)C(=O)O
B1: Example 59 (peptide)
peptide: cyclo(YR[Cit]CRG[dP]RR[2Nal]CYYK[dP]P)
modifications: disulfide 4-11
SMILES: N=C(N)NCCC[C@@H]1NC(=O)[C@@H]2CSSC[C@H](NC(=O)[C@H](Cc3ccc4ccccc4c3)NC(=O)[C@H](CCCNC(=N)N)NC(=O)[C@H](CCCNC(=N)N)NC(=O)[C@H]3CCCN3C(=O)CNC1=O)C(=O)N[C@@H](Cc1ccc(O)cc1)C(=O)N[C@@H](Cc1ccc(O)cc1)C(=O)N[C@@H](CCCCN)C(=O)N1CCC[C@@H]1C(=O)N1CCC[C@H]1C(=O)N[C@@H](Cc1ccc(O)cc1)C(=O)N[C@@H](CCCNC(=N)N)C(=O)N[C@@H](CCCNC(N)=O)C(=O)N2
B2: Example 58 (peptide)
peptide: cyclo(YR[Cit]CRG[dP]RR[2Nal]CYHK[dP]P)
modifications: disulfide 4-11
SMILES: N=C(N)NCCC[C@@H]1NC(=O)[C@@H]2CSSC[C@H](NC(=O)[C@H](Cc3ccc4ccccc4c3)NC(=O)[C@H](CCCNC(=N)N)NC(=O)[C@H](CCCNC(=N)N)NC(=O)[C@H]3CCCN3C(=O)CNC1=O)C(=O)N[C@@H](Cc1ccc(O)cc1)C(=O)N[C@@H](Cc1c[nH]cn1)C(=O)N[C@@H](CCCCN)C(=O)N1CCC[C@@H]1C(=O)N1CCC[C@H]1C(=O)N[C@@H](Cc1ccc(O)cc1)C(=O)N[C@@H](CCCNC(=N)N)C(=O)N[C@@H](CCCNC(N)=O)C(=O)N2
B3: Example 57 (peptide)
peptide: cyclo(YR[Cit]CRG[dP]RR[2Nal]CYRK[dP]P)
modifications: disulfide 4-11
SMILES: N=C(N)NCCC[C@@H]1NC(=O)[C@@H]2CSSC[C@H](NC(=O)[C@H](Cc3ccc4ccccc4c3)NC(=O)[C@H](CCCNC(=N)N)NC(=O)[C@H](CCCNC(=N)N)NC(=O)[C@H]3CCCN3C(=O)CNC1=O)C(=O)N[C@@H](Cc1ccc(O)cc1)C(=O)N[C@@H](CCCNC(=N)N)C(=O)N[C@@H](CCCCN)C(=O)N1CCC[C@@H]1C(=O)N1CCC[C@H]1C(=O)N[C@@H](Cc1ccc(O)cc1)C(=O)N[C@@H](CCCNC(=N)N)C(=O)N[C@@H](CCCNC(N)=O)C(=O)N2
B4: Example 60 (peptide)
peptide: cyclo(YR[Cit]CRG[dP]RR[2Nal]CYQQ[dP]P)
modifications: disulfide 4-11
SMILES: N=C(N)NCCC[C@@H]1NC(=O)[C@@H]2CSSC[C@H](NC(=O)[C@H](Cc3ccc4ccccc4c3)NC(=O)[C@H](CCCNC(=N)N)NC(=O)[C@H](CCCNC(=N)N)NC(=O)[C@H]3CCCN3C(=O)CNC1=O)C(=O)N[C@@H](Cc1ccc(O)cc1)C(=O)N[C@@H](CCC(N)=O)C(=O)N[C@@H](CCC(N)=O)C(=O)N1CCC[C@@H]1C(=O)N1CCC[C@H]1C(=O)N[C@@H](Cc1ccc(O)cc1)C(=O)N[C@@H](CCCNC(=N)N)C(=O)N[C@@H](CCCNC(N)=O)C(=O)N2
B5: Example 63 (peptide)
peptide: cyclo(RR[Cit]CRG[dP]RR[2Nal]CYQK[dP]P)
modifications: disulfide 4-11
SMILES: N=C(N)NCCC[C@@H]1NC(=O)[C@@H]2CSSC[C@H](NC(=O)[C@H](Cc3ccc4ccccc4c3)NC(=O)[C@H](CCCNC(=N)N)NC(=O)[C@H](CCCNC(=N)N)NC(=O)[C@H]3CCCN3C(=O)CNC1=O)C(=O)N[C@@H](Cc1ccc(O)cc1)C(=O)N[C@@H](CCC(N)=O)C(=O)N[C@@H](CCCCN)C(=O)N1CCC[C@@H]1C(=O)N1CCC[C@H]1C(=O)N[C@@H](CCCNC(=N)N)C(=O)N[C@@H](CCCNC(=N)N)C(=O)N[C@@H](CCCNC(N)=O)C(=O)N2
B6: Example 56 (peptide)
peptide: cyclo(YR[Cit]CRG[dP]TR[2Nal]CYQK[dP]P)
modifications: disulfide 4-11
SMILES: C[C@@H](O)[C@@H]1NC(=O)[C@H]2CCCN2C(=O)CNC(=O)[C@H](CCCNC(=N)N)NC(=O)[C@@H]2CSSC[C@H](NC(=O)[C@H](Cc3ccc4ccccc4c3)NC(=O)[C@H](CCCNC(=N)N)NC1=O)C(=O)N[C@@H](Cc1ccc(O)cc1)C(=O)N[C@@H](CCC(N)=O)C(=O)N[C@@H](CCCCN)C(=O)N1CCC[C@@H]1C(=O)N1CCC[C@H]1C(=O)N[C@@H](Cc1ccc(O)cc1)C(=O)N[C@@H](CCCNC(=N)N)C(=O)N[C@@H](CCCNC(N)=O)C(=O)N2
B7: Example 62 (peptide)
peptide: cyclo(QR[Cit]CRG[dP]RR[2Nal]CYQK[dP]P)
modifications: disulfide 4-11
SMILES: N=C(N)NCCC[C@@H]1NC(=O)[C@@H]2CSSC[C@H](NC(=O)[C@H](Cc3ccc4ccccc4c3)NC(=O)[C@H](CCCNC(=N)N)NC(=O)[C@H](CCCNC(=N)N)NC(=O)[C@H]3CCCN3C(=O)CNC1=O)C(=O)N[C@@H](Cc1ccc(O)cc1)C(=O)N[C@@H](CCC(N)=O)C(=O)N[C@@H](CCCCN)C(=O)N1CCC[C@@H]1C(=O)N1CCC[C@H]1C(=O)N[C@@H](CCC(N)=O)C(=O)N[C@@H](CCCNC(=N)N)C(=O)N[C@@H](CCCNC(N)=O)C(=O)N2
B8: Example 64 (peptide)
peptide: cyclo(HR[Cit]CRG[dP]RR[2Nal]CYQK[dP]P)
modifications: disulfide 4-11
SMILES: N=C(N)NCCC[C@@H]1NC(=O)[C@@H]2CSSC[C@H](NC(=O)[C@H](Cc3ccc4ccccc4c3)NC(=O)[C@H](CCCNC(=N)N)NC(=O)[C@H](CCCNC(=N)N)NC(=O)[C@H]3CCCN3C(=O)CNC1=O)C(=O)N[C@@H](Cc1ccc(O)cc1)C(=O)N[C@@H](CCC(N)=O)C(=O)N[C@@H](CCCCN)C(=O)N1CCC[C@@H]1C(=O)N1CCC[C@H]1C(=O)N[C@@H](Cc1c[nH]cn1)C(=O)N[C@@H](CCCNC(=N)N)C(=O)N[C@@H](CCCNC(N)=O)C(=O)N2
B9: Example 55 (peptide)
peptide: cyclo(YR[Cit]CRG[dP]WR[2Nal]CYQK[dP]P)
modifications: disulfide 4-11
SMILES: N=C(N)NCCC[C@@H]1NC(=O)[C@@H]2CSSC[C@H](NC(=O)[C@H](Cc3ccc4ccccc4c3)NC(=O)[C@H](CCCNC(=N)N)NC(=O)[C@H](Cc3c[nH]c4ccccc34)NC(=O)[C@H]3CCCN3C(=O)CNC1=O)C(=O)N[C@@H](Cc1ccc(O)cc1)C(=O)N[C@@H](CCC(N)=O)C(=O)N[C@@H](CCCCN)C(=O)N1CCC[C@@H]1C(=O)N1CCC[C@H]1C(=O)N[C@@H](Cc1ccc(O)cc1)C(=O)N[C@@H](CCCNC(=N)N)C(=O)N[C@@H](CCCNC(N)=O)C(=O)N2
B10: Example 61 (peptide)
peptide: cyclo(YR[Cit]CRG[dP]RR[2Nal]CYQE[dP]P)
modifications: disulfide 4-11
SMILES: N=C(N)NCCC[C@@H]1NC(=O)[C@@H]2CSSC[C@H](NC(=O)[C@H](Cc3ccc4ccccc4c3)NC(=O)[C@H](CCCNC(=N)N)NC(=O)[C@H](CCCNC(=N)N)NC(=O)[C@H]3CCCN3C(=O)CNC1=O)C(=O)N[C@@H](Cc1ccc(O)cc1)C(=O)N[C@@H](CCC(N)=O)C(=O)N[C@@H](CCC(=O)O)C(=O)N1CCC[C@@H]1C(=O)N1CCC[C@H]1C(=O)N[C@@H](Cc1ccc(O)cc1)C(=O)N[C@@H](CCCNC(=N)N)C(=O)N[C@@H](CCCNC(N)=O)C(=O)N2

Biological target: human CXCR4 (human, UniProt P61073 1-352)
Sequence (P61073 whole entry): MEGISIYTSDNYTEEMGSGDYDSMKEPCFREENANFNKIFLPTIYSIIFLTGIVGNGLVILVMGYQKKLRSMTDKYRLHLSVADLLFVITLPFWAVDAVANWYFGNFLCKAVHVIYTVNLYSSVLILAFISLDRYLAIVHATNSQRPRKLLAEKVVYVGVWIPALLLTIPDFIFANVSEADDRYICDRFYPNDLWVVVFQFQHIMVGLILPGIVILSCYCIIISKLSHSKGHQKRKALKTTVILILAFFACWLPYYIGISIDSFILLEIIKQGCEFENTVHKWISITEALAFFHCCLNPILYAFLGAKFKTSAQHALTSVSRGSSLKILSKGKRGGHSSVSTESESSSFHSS
Experiment: cell-based or functional assay

Binder | IC50 (nM) Ca2+ assay (method 2)
B1 | 7.8 nM
B2 | 10.5 nM
B3 | 4.2 nM
B4 | 0.18 nM
B5 | 2 nM
B6 | 0.74 nM
B7 | 1.8 nM
B8 | 3.3 nM
B9 | 6.3 nM
B10 | 4.1 nM
